# Reference: the supplement of paper PMC10126150
# ± gives the standard deviation of the averaged measurements.
# System: ATP
# Assay: switch fluorescence ratio, 500 uM ATP over buffer (Cy3 cluster intensity, sum of 5 cycles each) (fold (ratio)); higher = stronger signal-on switching upon ATP binding; sequences stand for … in TCGTCGGCAGCGTCAGATGTGTATAAGAGACAGTTTTTTTTTTTTTTTTTTTTTTTTT…TC
# Settings: aptamer strand: ATP DNA aptamer (quencher-CACCTGGGGGAGTATTGCGGAGGAAGG + anchor), 100 nM annealed; ATP concentration: 500 uM
# Procedure, shortened: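 Exposure to 500 uM ATP lasted 15 min at 22 °C before imaging, and a selection-buffer image was taken beforehand, for Cy3-labelled switching-strand clusters on a modified Illumina MiSeq flow-cell annealed to 100 nM quencher-labelled ATP aptamer. Five buffer/ATP cycles were run with NaOH stripping and re-annealing between them. The fluorescence ratio per cluster is summed target-cycle over summed buffer-cycle Cy3 intensity, averaged per switch-domain sequence. Clusters outside 100-1000 RFU were excluded.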
sequence,measurement,value
TTCGATGCAT,switch fluorescence ratio,1.58 ± 0.43
TTCGATTGTT,switch fluorescence ratio,0.952 ± 0.018
TTCGCCTAAG,switch fluorescence ratio,0.9658 ± 0.0067
TTCGCGGGTT,switch fluorescence ratio,0.97 ± 0.01
TTCGCTGGGT,switch fluorescence ratio,0.995 ± 0.017
TTCGGAAATG,switch fluorescence ratio,1.03 ± 0.025
TTCGGAACAG,switch fluorescence ratio,0.967 ± 0.013
TTCGGAAGGG,switch fluorescence ratio,0.956 ± 0.025
TTCGGAAGTT,switch fluorescence ratio,0.966 ± 0.021
TTCGGAATTG,switch fluorescence ratio,1.04 ± 0.033
TTCGGACTGC,switch fluorescence ratio,1.06 ± 0.031
TTCGGAGGGA,switch fluorescence ratio,2.2 ± 1.5
TTCGGAGTTG,switch fluorescence ratio,1 ± 0.022
TTCGGATGGC,switch fluorescence ratio,1.01 ± 0.084
TTCGGATTCG,switch fluorescence ratio,0.968 ± 0.03
TTCGGATTGG,switch fluorescence ratio,1.01 ± 0.0061
TTCGGCGACG,switch fluorescence ratio,1.0016 ± 0.00078
TTCGGCGCTG,switch fluorescence ratio,1.03 ± 0.074
TTCGGGATTA,switch fluorescence ratio,1 ± 0.018
TTCGGGGAAA,switch fluorescence ratio,1.02 ± 0.043
TTCGGGGAAC,switch fluorescence ratio,1.06 ± 0.11
TTCGGGGGGA,switch fluorescence ratio,1.04 ± 0.09
TTCGGGGTGG,switch fluorescence ratio,0.9976 ± 0.0066
TTCGGGTTTT,switch fluorescence ratio,1 ± 0.033
TTCGGTACTG,switch fluorescence ratio,1.01 ± 0.033
TTCGGTATGT,switch fluorescence ratio,1.01 ± 0.027
TTCGGTGGCG,switch fluorescence ratio,0.978 ± 0.077
TTCGGTGGGT,switch fluorescence ratio,0.988 ± 0.027
TTCGGTGGTT,switch fluorescence ratio,1.08 ± 0.076
TTCGTACAGC,switch fluorescence ratio,1.04 ± 0.036
TTCGTAGAAA,switch fluorescence ratio,1.05 ± 0.032
TTCGTATGGG,switch fluorescence ratio,1.09 ± 0.12
TTCGTCGGAT,switch fluorescence ratio,0.9991 ± 0.0037
TTCGTGGGGA,switch fluorescence ratio,0.995 ± 0.025
TTCGTGTACG,switch fluorescence ratio,1.02 ± 0.019
TTCGTGTATT,switch fluorescence ratio,1 ± 0.025
TTCGTTAAAG,switch fluorescence ratio,0.9612 ± 0.002
TTCGTTAAGA,switch fluorescence ratio,0.992 ± 0.0094
TTCGTTATGT,switch fluorescence ratio,0.98 ± 0.027
TTCGTTCGGT,switch fluorescence ratio,1.06 ± 0.07
TTCGTTCTTC,switch fluorescence ratio,0.993 ± 0.019
TTCGTTGGGG,switch fluorescence ratio,1.01 ± 0.041
TTCGTTTATT,switch fluorescence ratio,1.01 ± 0.046
TTCGTTTCGT,switch fluorescence ratio,0.995 ± 0.014
TTCGTTTTAG,switch fluorescence ratio,0.996 ± 0.033
TTCGTTTTCT,switch fluorescence ratio,1 ± 0.039
TTCGTTTTGA,switch fluorescence ratio,1.02 ± 0.057
TTCTAAAAAA,switch fluorescence ratio,1.01 ± 0.021
TTCTAAAGGG,switch fluorescence ratio,0.984 ± 0.065
TTCTAACTGG,switch fluorescence ratio,0.995 ± 0.013
TTCTAAGGTA,switch fluorescence ratio,0.993 ± 0.021
TTCTACTGGG,switch fluorescence ratio,1.01 ± 0.028
TTCTAGTCTA,switch fluorescence ratio,0.987 ± 0.01
TTCTATATGT,switch fluorescence ratio,0.977 ± 0.027
TTCTATGCAT,switch fluorescence ratio,1.14 ± 0.13
TTCTATTCTT,switch fluorescence ratio,1.02 ± 0.026
TTCTCAAAGA,switch fluorescence ratio,1.07 ± 0.1
TTCTCGAGTT,switch fluorescence ratio,0.992 ± 0.013
TTCTCGTACA,switch fluorescence ratio,1.19 ± 0.29
TTCTCTAATG,switch fluorescence ratio,1.03 ± 0.016
TTCTCTATAT,switch fluorescence ratio,1.05 ± 0.11
TTCTCTTGTT,switch fluorescence ratio,1 ± 0.037
TTCTGAATTT,switch fluorescence ratio,0.999 ± 0.028
TTCTGACGGT,switch fluorescence ratio,1.12 ± 0.037
TTCTGCGGCT,switch fluorescence ratio,1.12 ± 0.039
TTCTGCTCGC,switch fluorescence ratio,1.08 ± 0.058
TTCTGGATCT,switch fluorescence ratio,0.996 ± 0.044
TTCTGGCATG,switch fluorescence ratio,1.09 ± 0.099
TTCTGGGGCT,switch fluorescence ratio,1.03 ± 0.017
TTCTGGGGTG,switch fluorescence ratio,1.46 ± 0.67
TTCTGGGTGG,switch fluorescence ratio,0.987 ± 0.04
TTCTGGTAGG,switch fluorescence ratio,1 ± 0.025
TTCTGTAATT,switch fluorescence ratio,1.02 ± 0.018
TTCTGTTAGA,switch fluorescence ratio,1 ± 0.012
TTCTGTTGAT,switch fluorescence ratio,0.9875 ± 0.0092
TTCTTATTTT,switch fluorescence ratio,0.999 ± 0.014
TTCTTGATAA,switch fluorescence ratio,1.01 ± 0.013
TTCTTGGGGG,switch fluorescence ratio,1.01 ± 0.029
TTCTTTATTT,switch fluorescence ratio,0.993 ± 0.027
TTCTTTGAAT,switch fluorescence ratio,1.036 ± 0.0013
TTCTTTGACT,switch fluorescence ratio,0.983 ± 0.024
TTCTTTGGAC,switch fluorescence ratio,1.0597 ± 0.0003
TTCTTTTCTT,switch fluorescence ratio,1.02 ± 0.047
TTGAAAATCT,switch fluorescence ratio,1.02 ± 0.029
TTGAAATATT,switch fluorescence ratio,1.02 ± 0.013
TTGAAATCTT,switch fluorescence ratio,1.78 ± 1
TTGAAATTT,switch fluorescence ratio,1.001 ± 0.003
TTGAACGAGA,switch fluorescence ratio,0.998 ± 0.019
TTGAACGCGG,switch fluorescence ratio,1.05 ± 0.018
TTGAACGGGA,switch fluorescence ratio,1.01 ± 0.044
TTGAACTTGT,switch fluorescence ratio,1.03 ± 0.028
TTGAAGGTGC,switch fluorescence ratio,1.69 ± 0.43
TTGAATAGTG,switch fluorescence ratio,0.966 ± 0.029
TTGAATTTGT,switch fluorescence ratio,0.975 ± 0.023
TTGACAAGAT,switch fluorescence ratio,1.28 ± 0.39
TTGACACTCG,switch fluorescence ratio,0.98 ± 0.021
TTGACAGAGT,switch fluorescence ratio,1.01 ± 0.028
TTGACCGGAA,switch fluorescence ratio,1.14 ± 0.038
TTGACCTGGT,switch fluorescence ratio,1.05 ± 0.053
TTGACGAAAT,switch fluorescence ratio,1.41 ± 0.03
TTGACGCAGT,switch fluorescence ratio,1.23 ± 0.03
TTGACGTATT,switch fluorescence ratio,0.9874 ± 0.006
TTGACGTGTG,switch fluorescence ratio,0.961 ± 0.01
TTGACTTTTT,switch fluorescence ratio,0.991 ± 0.016
TTGAGAATAC,switch fluorescence ratio,1.62 ± 0.68
TTGAGAATT,switch fluorescence ratio,1.02 ± 0.051
TTGAGATCGG,switch fluorescence ratio,1.01 ± 0.05
TTGAGATGGT,switch fluorescence ratio,0.954 ± 0.017
TTGAGATTCG,switch fluorescence ratio,1.01 ± 0.031
TTGAGATTGC,switch fluorescence ratio,0.98 ± 0.027
TTGAGCAGCG,switch fluorescence ratio,1.09 ± 0.07
TTGAGCATAG,switch fluorescence ratio,1.43 ± 0.44
TTGAGCCA,switch fluorescence ratio,1.01 ± 0.025
TTGAGCTAGG,switch fluorescence ratio,1.01 ± 0.023
TTGAGCTGTT,switch fluorescence ratio,0.981 ± 0.033
TTGAGGAATG,switch fluorescence ratio,1.02 ± 0.018
TTGAGGGCAT,switch fluorescence ratio,1.29 ± 0.45
TTGAGGGGCG,switch fluorescence ratio,0.996 ± 0.044
TTGAGGTATA,switch fluorescence ratio,0.987 ± 0.025
TTGAGTACTT,switch fluorescence ratio,0.988 ± 0.025
TTGAGTCATG,switch fluorescence ratio,0.978 ± 0.047
TTGAGTGGTC,switch fluorescence ratio,0.997 ± 0.016
TTGAGTTACT,switch fluorescence ratio,0.981 ± 0.063
TTGAGTTCGG,switch fluorescence ratio,0.986 ± 0.015
TTGAGTTTGA,switch fluorescence ratio,0.994 ± 0.011
TTGATATAGT,switch fluorescence ratio,0.9993 ± 0.0073
TTGATATATA,switch fluorescence ratio,0.974 ± 0.018
TTGATATATT,switch fluorescence ratio,0.981 ± 0.017
TTGATATCTA,switch fluorescence ratio,0.982 ± 0.049
TTGATATGGA,switch fluorescence ratio,0.98 ± 0.022
TTGATATGGG,switch fluorescence ratio,1.03 ± 0.11
TTGATCTCAT,switch fluorescence ratio,0.9479 ± 0.0076
TTGATGCGGA,switch fluorescence ratio,0.971 ± 0.05
TTGATGCTCT,switch fluorescence ratio,1.21 ± 0.28
TTGATGGATG,switch fluorescence ratio,1.04 ± 0.09
TTGATGGGAT,switch fluorescence ratio,0.988 ± 0.052
TTGATGGGTA,switch fluorescence ratio,1.01 ± 0.032
TTGATGGTAA,switch fluorescence ratio,0.977 ± 0.022
TTGATGGTAC,switch fluorescence ratio,1.0774 ± 0.00051
TTGATGTGCT,switch fluorescence ratio,1.01 ± 0.013
TTGATGTTGG,switch fluorescence ratio,0.992 ± 0.048
TTGATTACTC,switch fluorescence ratio,1.04 ± 0.051
TTGATTCAGC,switch fluorescence ratio,1.01 ± 0.012
TTGATTCATA,switch fluorescence ratio,0.98126 ± 0.00011
TTGATTCATT,switch fluorescence ratio,1.01 ± 0.025
TTGATTGATA,switch fluorescence ratio,1 ± 0.028
TTGATTGCTT,switch fluorescence ratio,0.9717 ± 0.0011
TTGATTGGCC,switch fluorescence ratio,0.958 ± 0.018
TTGATTGGTA,switch fluorescence ratio,1 ± 0.041
TTGATTTCGT,switch fluorescence ratio,0.9998 ± 0.0024
TTGCAAAACT,switch fluorescence ratio,1.32 ± 0.51
TTGCAAATCG,switch fluorescence ratio,1.11 ± 0.18
TTGCAATTAT,switch fluorescence ratio,1.26 ± 0.18
TTGCACCATT,switch fluorescence ratio,1.05 ± 0.12
TTGCACGGTT,switch fluorescence ratio,1.04 ± 0.06
TTGCACGTAT,switch fluorescence ratio,1.08 ± 0.056
TTGCACGTTT,switch fluorescence ratio,1.27 ± 0.19
